From paper PMC9352680, “A comprehensive thermodynamic model for RNA binding by the Saccharomyces cerevisiae Pumilio protein PUF4”
Where a chain is given by its changes, count along the chain named. Names may count otherwise.

T1: PUF4 RNA-binding domain (Saccharomyces cerevisiae, UniProt P25339 537-888)
T1 sequence: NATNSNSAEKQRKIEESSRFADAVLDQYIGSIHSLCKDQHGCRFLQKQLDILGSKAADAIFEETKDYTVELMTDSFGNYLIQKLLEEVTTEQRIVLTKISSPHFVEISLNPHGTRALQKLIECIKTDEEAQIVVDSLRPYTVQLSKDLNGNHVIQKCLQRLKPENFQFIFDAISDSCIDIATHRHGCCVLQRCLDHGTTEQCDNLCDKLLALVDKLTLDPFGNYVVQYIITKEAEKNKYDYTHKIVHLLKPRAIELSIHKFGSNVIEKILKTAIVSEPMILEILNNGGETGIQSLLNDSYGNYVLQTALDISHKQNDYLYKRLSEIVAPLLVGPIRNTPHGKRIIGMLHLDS

B1: Ic_S2_P5E.1_K5.1_C5.1_H5.1_A5.1_[T5C]_[T6G]_[A7C]_F5.1_[T8G]_[T9C]_[A10C]_T5.1 (ssRNA)
RNA: UUUGAUUAAUAUGAUAUCGUUCUUUCUUGUACGCGCCUUCUUUCUCGAUAUCAUAUUAAUCUUU
B2: Ic_S2_P5E.1_K5.1_C5.1_H5.1_A5.1_[T5A]_[T6A]_[A7C]_F5.1_[T9G]_[A10G]_T5.1 (ssRNA)
RNA: B1 RNA with C32A, G33A, G35U, C36G, C37G
B3: Ic_S2_P5E.1_K5.1_C5.1_H5.1_A5.1_[T5A]_[T6C]_[A7T]_F5.1_[T8C]_[T9A]_T5.1 (ssRNA)
RNA: B1 RNA with C32A, G33C, C34U, G35C, C36A, C37A
B4: Ic_S2_P5E.1_K5.1_C5.1_H5.1_A5.1_[T5G]_[T6C]_[A7C]_F5.1_[T8C]_[A10T]_T5.1 (ssRNA)
RNA: B1 RNA with C32G, G33C, G35C, C36U, C37U
B5: Ic_S2_P5E.1_K5.1_C5.1_H5.1_A5.1_[T6C]_[A7G]_F5.1_[T8C]_[T9C]_[A10G]_T5.1 (ssRNA)
RNA: B1 RNA with C32U, G33C, C34G, G35C, C37G
B6: Ic_S2_P5E.1_K5.1_C5.1_H5.1_A5.1_[T5C]_[T6A]_[A7C]_F5.1_[T9G]_[A10G]_T5.1 (ssRNA)
RNA: B1 RNA with G33A, G35U, C36G, C37G
B7: Ic_S2_P5E.1_K5.1_C5.1_H5.1_A5.1_[T5A]_[T6C]_[A7C]_F5.1_[T9A]_[A10G]_T5.1 (ssRNA)
RNA: B1 RNA with C32A, G33C, G35U, C36A, C37G
B8: Ic_S2_P5E.1_K5.1_C5.1_H5.1_A5.1_[T5A]_[T6C]_[A7G]_F5.1_[T9A]_[A10G]_T5.1 (ssRNA)
RNA: B1 RNA with C32A, G33C, C34G, G35U, C36A, C37G
B9: Ic_S2_P5E.1_K5.1_C5.1_H5.1_A5.1_[T5G]_[A7C]_F5.1_[T8G]_[A10G]_T5.1 (ssRNA)
RNA: B1 RNA with C32G, G33U, C36U, C37G
B10: Ic_S2_P5E.1_K5.1_C5.1_H5.1_A5.1_[T5A]_[T6A]_[A7C]_F5.1_[T8G]_[T9C]_[A10C]_T5.1 (ssRNA)
RNA: B1 RNA with C32A, G33A
B11: Ic_S2_P5E.1_K5.1_C5.1_H5.1_A5.1_[T5C]_[T6G]_[A7T]_F5.1_[T9G]_[A10T]_T5.1 (ssRNA)
RNA: B1 RNA with C34U, G35U, C36G, C37U
B12: Ic_S2_P5E.1_K5.1_C5.1_H5.1_A5.1_[T5C]_F5.1_[T8A]_[T9A]_[A10T]_T5.1 (ssRNA)
RNA: B1 RNA with G33U, C34A, G35A, C36A, C37U
B13: Ic_S2_P5E.1_K5.1_C5.1_H5.1_A5.1_[T6C]_[A7T]_F5.1_[T8A]_[T9G]_[A10C]_T5.1 (ssRNA)
RNA: B1 RNA with C32U, G33C, C34U, G35A, C36G
B14: Ic_S2_P5E.1_K5.1_C5.1_H5.1_A5.1_[T5G]_[T6C]_F5.1_[T8A]_[T9A]_[A10C]_T5.1 (ssRNA)
RNA: B1 RNA with C32G, G33C, C34A, G35A, C36A
B15: Ic_S2_P5E.1_K5.1_C5.1_H5.1_A5.1_[A7T]_F5.1_[T8A]_[A10G]_T5.1 (ssRNA)
RNA: B1 RNA with C32U, G33U, C34U, G35A, C36U, C37G
B16: Ic_S2_P5E.1_K5.1_C5.1_H5.1_A5.1_[T6A]_[A7G]_F5.1_[T9A]_[A10C]_T5.1 (ssRNA)
RNA: B1 RNA with C32U, G33A, C34G, G35U, C36A
B17: Ic_S2_P5E.1_K5.1_C5.1_H5.1_A5.1_[T6G]_[A7T]_F5.1_[T8C]_[T9C]_[A10T]_T5.1 (ssRNA)
RNA: B1 RNA with C32U, C34U, G35C, C37U
B18: Ic_S2_P5E.1_K5.1_C5.1_H5.1_A5.1_[T6A]_[A7C]_F5.1_[T8C]_[T9A]_[A10T]_T5.1 (ssRNA)
RNA: B1 RNA with C32U, G33A, G35C, C36A, C37U
B19: Ic_S2_P5E.1_K5.1_C5.1_H5.1_A5.1_[T5A]_[T6A]_F5.1_[A10T]_T5.1 (ssRNA)
RNA: B1 RNA with C32A, G33A, C34A, G35U, C36U, C37U
B20: Ic_S2_P5E.1_K5.1_C5.1_H5.1_A5.1_[T5G]_[T6C]_[A7T]_F5.1_[T8C]_[A10C]_T5.1 (ssRNA)
RNA: B1 RNA with C32G, G33C, C34U, G35C, C36U
B21: Ic_S2_P5E.1_K5.1_C5.1_H5.1_A5.1_[T5G]_[A7T]_F5.1_[T8C]_[T9C]_[A10T]_T5.1 (ssRNA)
RNA: B1 RNA with C32G, G33U, C34U, G35C, C37U
B22: Ic_S2_P5E.1_K5.1_C5.1_H5.1_A5.1_[T5C]_[T6A]_[A7T]_F5.1_[T8G]_T5.1 (ssRNA)
RNA: B1 RNA with G33A, C34U, C36U, C37A
B23: Ic_S2_P5E.1_K5.1_C5.1_H5.1_A5.1_[T5A]_[A7T]_F5.1_[T9A]_[A10G]_T5.1 (ssRNA)
RNA: B1 RNA with C32A, G33U, C34U, G35U, C36A, C37G
B24: Ic_S2_P5E.1_K5.1_C5.1_H5.1_A5.1_[T5G]_[T6C]_F5.1_[T8C]_[A10G]_T5.1 (ssRNA)
RNA: B1 RNA with C32G, G33C, C34A, G35C, C36U, C37G
B25: Ic_S2_P5E.1_K5.1_C5.1_H5.1_A5.1_[T5C]_F5.1_[T8C]_[T9G]_[A10C]_T5.1 (ssRNA)
RNA: B1 RNA with G33U, C34A, G35C, C36G
B26: Ic_S2_P5E.1_K5.1_C5.1_H5.1_A5.1_[T5C]_[T6C]_[A7T]_F5.1_[T8C]_[T9G]_[A10C]_T5.1 (ssRNA)
RNA: B1 RNA with G33C, C34U, G35C, C36G
B27: Ic_S2_P5E.1_K5.1_C5.1_H5.1_A5.1_[T5C]_[T6C]_[A7T]_F5.1_[T8C]_[T9C]_T5.1 (ssRNA)
RNA: B1 RNA with G33C, C34U, G35C, C37A
B28: Ic_S2_P5E.1_K5.1_C5.1_H5.1_A5.1_[T5A]_[T6C]_[A7C]_F5.1_[T9A]_[A10T]_T5.1 (ssRNA)
RNA: B1 RNA with C32A, G33C, G35U, C36A, C37U
B29: Ic_S2_P5E.1_K5.1_C5.1_H5.1_A5.1_[T6G]_[A7C]_F5.1_[T8C]_[T9G]_[A10G]_T5.1 (ssRNA)
RNA: B1 RNA with C32U, G35C, C36G, C37G
B30: Ic_S2_P5E.1_K5.1_C5.1_H5.1_A5.1_[T5G]_[T6C]_[A7C]_F5.1_[T9A]_[A10T]_T5.1 (ssRNA)
RNA: B1 RNA with C32G, G33C, G35U, C36A, C37U
B31: Ic_S2_P5E.1_K5.1_C5.1_H5.1_A5.1_[T5G]_[A7C]_F5.1_[T8A]_[T9C]_[A10T]_T5.1 (ssRNA)
RNA: B1 RNA with C32G, G33U, G35A, C37U
B32: Ic_S2_P5E.1_K5.1_C5.1_H5.1_A5.1_[T5C]_[T6G]_[A7T]_F5.1_[T8G]_[T9C]_[A10C]_T5.1 (ssRNA)
RNA: B1 RNA with C34U
B33: Ic_S2_P5E.1_K5.1_C5.1_H5.1_A5.1_[T5G]_[T6C]_F5.1_[T8C]_[T9C]_[A10G]_T5.1 (ssRNA)
RNA: B1 RNA with C32G, G33C, C34A, G35C, C37G
B34: Ic_S2_P5E.1_K5.1_C5.1_H5.1_A5.1_[T5C]_[A7G]_F5.1_[T8G]_[T9C]_[A10T]_T5.1 (ssRNA)
RNA: B1 RNA with G33U, C34G, C37U
B35: Ic_S2_P5E.1_K5.1_C5.1_H5.1_A5.1_[T5A]_[T6C]_[A7T]_F5.1_[T8A]_[T9G]_[A10T]_T5.1 (ssRNA)
RNA: B1 RNA with C32A, G33C, C34U, G35A, C36G, C37U
B36: Ic_S2_P5E.1_K5.1_C5.1_H5.1_A5.1_[T5G]_[T6C]_[A7T]_F5.1_[A10T]_T5.1 (ssRNA)
RNA: B1 RNA with C32G, G33C, C34U, G35U, C36U, C37U
B37: Ic_S2_P5E.1_K5.1_C5.1_H5.1_A5.1_[T6C]_F5.1_[T8A]_[A10T]_T5.1 (ssRNA)
RNA: B1 RNA with C32U, G33C, C34A, G35A, C36U, C37U
B38: Ic_S2_P5E.1_K5.1_C5.1_H5.1_A5.1_[A7T]_F5.1_[T9C]_[A10G]_T5.1 (ssRNA)
RNA: B1 RNA with C32U, G33U, C34U, G35U, C37G
B39: Ic_S2_P5E.1_K5.1_C5.1_H5.1_A5.1_[T6A]_[A7G]_F5.1_[T9C]_[A10C]_T5.1 (ssRNA)
RNA: B1 RNA with C32U, G33A, C34G, G35U
B40: Ic_S2_P5E.1_K5.1_C5.1_H5.1_A5.1_[T5G]_[T6C]_F5.1_[T8G]_[T9C]_[A10T]_T5.1 (ssRNA)
RNA: B1 RNA with C32G, G33C, C34A, C37U
B41: Ic_S2_P5E.1_K5.1_C5.1_H5.1_A5.1_[T5C]_[T6G]_[A7T]_F5.1_[T8C]_[T9G]_[A10T]_T5.1 (ssRNA)
RNA: B1 RNA with C34U, G35C, C36G, C37U

Target: T1, PUF4 RNA-binding domain
Experiment: Mg; RNA-MaP; 20 mM Na-HEPES pH 7.4, 30 mM KOAc, 0.75 mM MgCl2, 0.1% Tween-20, 5% glycerol, 0.1 mg/mL BSA, 2 mM DTT; 25 C; 0.0125-409.6 nM protein
Settings: tags: N-His6-TEV cleaved; C-SNAP kept, Cy3B-labelled; label: tethered on chip by stalled RNA polymerase

Binder | Kd
UCUCUUUAUAUAUAAUCUCUU (ssRNA) [Ib_S1_P4E.1_K4.1_C4.1_H4.1_[G2A]_A4.1_F4.1_[T8A]_T4.1] | 532 nM
UCUCUUUGCAUAUAAUCUCUU (ssRNA) [Ib_S1_P4E.1_K4.1_C4.1_H4.1_[T3C]_A4.1_F4.1_[T8A]_T4.1] | > 2300 nM
B1 | 548 nM
B2 | 26 nM
B3 | 1040 nM
B4 | 254 nM
B5 | 1530 nM
B6 | 4.81 nM
B7 | 28.5 nM
B8 | 69.1 nM
B9 | 492 nM
B10 | 611 nM
B11 | 31.8 nM
B12 | 25.3 nM
B13 | 23.8 nM
B14 | 653 nM
B15 | 15.8 nM
B16 | 2.48 nM
B17 | 21.6 nM
B18 | 13.7 nM
B19 | 53.3 nM
B20 | 383 nM
B21 | 175 nM

Binder | Kd
B22 | 2.58 nM
B23 | 5.21 nM
B24 | 794 nM
B25 | 641 nM
B26 | 101 nM
B27 | 110 nM
B28 | 4.74 nM
B29 | 1340 nM
B30 | 4.62 nM
B31 | 722 nM
B32 | 205 nM
B33 | 1330 nM
B34 | 1660 nM
B35 | 737 nM
B36 | 37.5 nM
B37 | 29.9 nM
B38 | 42.9 nM
B39 | 17.8 nM
B40 | 905 nM
B41 | 207 nM
UCUCUUUGUGUAUCAUCUCUU (ssRNA) [Ib_S1_P4E.1_K4.1_C4.1_H4.1_[A4G]_A4.1_F4.1_[T8C]_T4.1] | 30.1 nM
UCUCUUUUUAUAUAAUCUCUU (ssRNA) [Ib_S1_P4E.1_K4.1_C4.1_H4.1_[G2T]_A4.1_F4.1_[T8A]_T4.1] | 2120 nM
